# Assay: soluble on expression in E. coli; label from the status in PepcDB or PDB records
row,Sequence,soluble on expression in E. coli
1,MSLKRIDRIYMYVKEKTAHLTKAEYDQGVTTQEIAEVLGIQRTNSSKDLNQLVREGKLIKTDGRPVRYIYQTLVTHVKPVTKHVVSYKETPVSEEKNTLQIDTKDIFAKIIGANGSMKNSVEQAKAAILYPPRGLNCLITGPTGSGKTYFAHAMYHFAKAHHVIDEETELIVFNCADYANNPELLMSHLFGYAKGAFTGADEEKMGIIDQADGGMLFLDEIHRLPPEGQEMIFYFMDHGTYSRLGETTKSHEANVRIVGATTEDPGSSLLETFVRRIPINIKLPAFEKRPANEKVDLVKIMIAHEANRTQRKISLTEDVAKALIGSVTYGNIGQLKSNIQLVCARGFLNHMQSPEISITIDDLTEGIRSGLIQLASNRSAMAELSKILEPKITVAPNEGHHHHHH,soluble
2,MGSDKIHHHHHHMIRISNKIKTLLAMLSFVQVTSGCDATVQDIIIDTDPGVEIGNNDYYTWCKETLSVIDKDLKISGTHSYYENQDRSQVSFIWGNIFLLYTYTEGISLSKSEWSDALMNCFLNFDNYWHPNYKGIAGYATLPTSAEKVPDRFYDENGWTAIGLCDAYLATQNNSYLEKAKGALAFSLSGEDNVLGGGIYFQETFVSLPVQKNTICSAVTMLSCMKLYEITQDRQYLDAAIRINDWTVENLLDKSDNLLWDAKMVADGSVNTQKWSYNAGFMIRSWLKMYQATKDEKYLSQAKATLASSEAKWYNSINGALNDPGYFAFSIIDSWFDMYDTDKNTVWLTKAFHAINFIHNKLRDGNGRYPEHWGTPTTSNLEKYDLRFSTVAAYMYMRAANYKRILND,not soluble
3,MSLTPYNVARKRGELKYLLLTESQFDGGMMLRFVLRSETKLTQLRAALPWLRAQLPQLRVITANIQPVHMAIMEGETEIYLTDQQALAERFNDVPLWIRPQSFFQTNPTVASRLYATARDWVGQLPVRHMWDLFCGVGGFGLHCATPQMQLTGIEIAPEAIACAKQSAAELGLTRLHFQALDSTQFATAQGETPDLVLVNPPRRGIGKPLCDYLAQMAPRFIIYSSCNAQTMAQDIRHLPNYRIQRVQLFDMFPHTAHYEVLALLRRSEGHHHHHH,not soluble
4,MGSDKIHHHHHHMTEWVPVIYGIGLDAAGRCQHYHLETDIAALWCRRCQHYYACYRCHDTLCQHTFVASAPTDLAVMCGACRYRMTVDRYHEGQCPHCHRPFNPRCRLHDQVYFEK,not soluble
5,MAAIAFIGLGQMGSPMASNLLQQGHQLRVFDVNAEAVRHLVDKGATPAANPAQAAKDAEFIITMLPNGDLVRNVLFGENGVCEGLSTDALVIDMSTIHPLQTDKLIADMQAKGFSMMDVPVGRTSANAITGTLLLLAGGTAEQVERATPILMAMGSELINAGGPGMGIRVKLINNYMSIALNALSAEAAVLCEALNLPFDVAVKVMSGTAAGKGHFTTSWPNKVLSGDLSPAFMIDLAHKDLGIALDVANQLHVPMPLGAASREVYSQARAAGRGRQDWSAILEQVRVSAGMTAKVKM,soluble
6,MESLTLQPIARVDGAINLPGSKSVSNRALLLAALACGKTALTNLLDSDDVRHMLNALSALGINYTLSADRTRCDITGNGGALRAPGALELFLGNAGTAMRPLAAALCLGQNEIVLTGEPRMKERPIGHLVDSLRQGGANIDYLEQENYPPLRLRGGFTGGDIEVDGSVSSQFLTALLMTAPLAPKDTIIRVKGELVSKPYIDITLNLMKTFGVEIANHHYQQFVVKGGQQYHSPGRYLVEGDASSASYFLAAGAIKGGTVKVTGIGRKSMQGDIRFADVLEKMGATITWGDDFIACTRGELHAIDMDMNHIPDAAMTIATTALFAKGTTTLRNIYNWRVKETDRLFAMATELRKVGAEVEEGHDYIRITPPAKLQHADIGTYNDHRMAMCFSLVALSDTPVTILDPKCTAKTFPDYFEQLARMSTPA,not soluble
7,MEKKANHGDDVQESVPIIHSQVVKIKREFEKIQHPSLKQPEMPLVFREIMGPRRSRSPLGLGERERSIPVGN,not soluble
8,MSLKLGIIGSGKIVHDFLTAIDQINNLDVVAISSTKRSENIAQELAKKYSINKTYTDNDELMSDPDVDTVYVAVPNFLHYQVAKAALEHGKNVICEKPFVDSTNEAKKLKQLADEKNLIIVEAITNIYLENFKRIQREIENIAPIHIVSLNYTQYSSRYDDFLKGKIAPVFDPAKDGGTLMDLNIYNIHLVSALFGLPDKVKYYANMQKGVDTSGILHLSYPDKQAALIAAKDSYVTPRSFIEGEKGSIYIDGSTGELNNFTIEMRDQKPKRYNLNKYSHRMASEFNAFVEMIDNHDKVKADEAFVNTLESMQILTTAKNSEEGHHHHHH,soluble
9,MTSSNEKLPKINHDNEVFALLYKILSSEVQTIKGEDNEKVNQLRVDITISEISQLTDKMKKAFLEQPALLEISNEPITVVADMHGQSIHLLRIFLTNEAPPNQKYLFLGDYVDRGSQSVVVMCLLFCMKHRYPQHVFLLRGNHEDVNTTLNYGFYDECLEQWKNDEGEKVWRMFIDTFNCMPLAAVIGGKVFCAHGGISPWLESLEDINSIERPLVVPPYGLACDLLWSDPAQPERNGWGLSHRGISFTYGKSVVEEFCAKNDIALVIRGHQLFKEMYPQGCVLRFGGRLISLFSALNYEGHKNNSSVLKLEFVGQRVKVKQVLYRCRHYAPLRSNEYLGFRDMKSSSGKNEKRKKGRLESLLG,not soluble
10,MGSDKIHHHHHHMGTCLLSGLSEPSGGISEHLRGQTDQLGFRQFPHGLSGITQPCRGHRAPLAGLHPRYLRFSQSTPAHFVILTTESMTPTPEIPEPHYIGHRQRLKKKFFKCGLQALHDYEAVELLLSYAIPRKDIKSLSKDLLERFGSLKGIMDAELEELTAVRGISAHAAGLVRMVKEMSALYLQEKAREKPQISCTGELLDFCKTALGGLKDENFCVLYLDTQNRIIAFETIQKGIVNQAVVYPRQVIERALSHKSSALILVHNHPSGFVKPSDADIRLTRTITDTAKLLDIMVHDHLIIGENRFFSFREEGIMPL,not soluble
11,SKDVLADYKELFRQFSISDIAVWVSTPSFAGVCITEKEFNSKMLPNLESMIFIGEALSKNLTKELMSRFPNTRIINGYGPTEATVGVSVNDMTQKAIDDEK,not soluble
12,MVEFRNEVSHQWTRRHTLRKFRAGMLSRDSLCDADFVLVTASKFHGSRVPTPCPVCDSDQLRHVLWVYGESLGRASGSARTMEEIVTFAQSGKEFTVHTVEVCPDCRWNHLLNSVTAMPQ,not soluble
13,MSLAADTPTTCCFSYTSRQIPQNFIADYFETSSQCSKPGVIFLTKRSRQVCADPSEEWVQKYVSDLELSA,soluble
14,MAHHHHHHMLSRVAAVKAPRTHNRRRVTGSSGRTREGGESEPRRPNMSRRVFPSAVLLLLVTMMCCDRGAATAQVEKATDASTPSGSALTGAITAEGSASGGVERPQRVDLFVPQTKQVLQKTGTDSGRRDSFVSPSLVSAGGVIAAFAEGHINAKNPIPNQLSRLLMLLRSTSTLRGNGPLLLKRSIKKEWSARTVLGKAEGNESFDVVRHPTTTMKGNKMFLLAGSTALSDLNGSWKEGSLEIKLVVGEVTKPTDSEQSKRIEWGEIKSPLNGSTLAAHKGNLTECLASGGSGVLMEDGTLVFSLMAVNEKNDGVYSMIIYSKDNGSTWALSEDISPAKCLNPRITEWEGSLLMIVDCENDQRV,not soluble
15,MSLKNREWYKDAVFYEVLVRAFYDPEGNGVGSLKGLTEKLDYIQWLGVDCIWIPPFYDSPLRDGGYDIRNFREILPEFGTVDDFVELIDHAHRRGLRVITDLVMNHTSDQHAWFQESRRDPTGPYGDFYVWSDDPTLYNEARIIFVDTEESNWTYDPVRGQYFWHRFFSHQPDLNYDNPAVQEAMLDVLRFWLDLGLDGFRLDAVPYLFEREGTNGENLKETHDFLKLCRSVIEKEYPGRILLAEANQWPQDVVEYFGEKDKGDECHMAFHFPLMPRIFMGVRQGSRTPISEILANTPEIPKTAQWGIFLRNHDELTLEMVSDEERSYMYSQFAMEPRMRANVGIRRRLSPLLEGDRNQLELLHGLLLSLPGSPVLYYGDEIGMGDNIWLHDRDGVRTPMQWSNDRNGGFSKADPERLYLPAIQNDQYGYAQVNVESQLNRENSLLRWLRNQILIRKQYRAFGAGTYREVSSTNESVLTFLREHKGQTILCVNNMSKYPQAVSLDLREFAGHTPREMSGGQLFPTIAEREWIVTLAPHGFFWFDLTADEKDDMEEGHHHHHH,soluble
16,MSLKISDVVVELFREAAIYLPEDVKNALEEAYKKESSEISKNTLKAIIENNKIAEETQVPLCQDTGVPIVFLKIGKNINSSEIMKIIEEIKEGVKKATEEVPLRPNVVHPLTRENFKTNVGLNSPFINIEFDESLDREIEIIAFPKGAGSENMSALKMLKPSDGIEGIKNFVLETIANAGGKPCPPIVVGIGIGGTADVALKLAKKALLRKIGERHRDKEIANLEKELLEKINSLGIGAMGLGGDITALDVFIEIAGCHTASLPVGICIQCWADRRAIKRIKLDAKEGGSHHHHHH,soluble
17,MSLNPVDRPLLDIGLTRLEFLRISGKGLAGLTIAPALLSLLGCKQEDIDSGTVGLINTPKGVLVTQRARCTGCHRCEISCTNFNDGSVGTFFSRIKIHRNYFFGDNGVGSGGGLYGDLNYTADTCRQCKEPQCMNVCPIGAITWQQKEGCITVDHKRCIGCSACTTACPWMMATVNTESKKSSKCVLCGECANACPTGALKIIEWKDITEGHHHHHH,not soluble
18,MTISEVSKKYELSADTLRYYERIGLIPPVNRNKSGIRSFTEEDCEWVNFIKCMRGAGLSIETLIEYVAMFQQGSSTIKARKELLIEQRNQLAKRIEEMQKTLERLNFKIDRYEEGIIEKEKVLKSSRNKKMEAVSYE,not soluble
19,GFTPHDSAPYGALDMADFEFEQMFTDALGIDEYGG,soluble
20,MFSQAQFNVTMAEEDRWKQWYPNMEMIVNNKGPKLIFPELNFNITGLEEKSRYVVLLSIEKYDNIRYGYRNGKWGPSKVRHATKKEQEIKYFLHPDGTKLGKELMKETIKFDTVRITNHKKFMDKDNVFFVETMHKYVPVLTVKNITNVESANHSMRMEVAQFFPVTVYNQESIGNWKSKFHKNSTYGNRLDGGNKRKNTDSSEERTSKRSKNETEIAVSDILQVASQSENYNESTNSGRLQNEISSSIHQFPSTSYQNQYPHAYPTVNTPPIYVQQFTALFDEIHNQFDPKTKQNRVAKNVQYLSSVPQFAINQKENIHQNAPDYPVSQFPNQYPYGSYPYYYPYFQSSQQFPHLNYSMNNSIYSDSSFQSSFSAENSYFDENGNPIHYPYYSSN,not soluble
21,MSLDFHGVFPYLVSPVDAEGRVRADVMGRLCDDLIQAGVHGLTPLGSTGEFAYLGTAQREAVVRATIEAAQRRVPVVAGVASTSVADAVAQAKLYEKLGADGILAILEAYFPLKDAQIESYFRAIADAVEIPVVIYTNPQFQRSDLTLDVIARLAEHPRIRYIKDASTNTGRLLSIINRCGDALQVFSASAHIPAAVMLIGGVGWMAGPACIAPRQSVALYELCKAQRWDEALMLQRKLWRVNEAFAKFNLAACIKAGLALQGYDVGDPIPPQAALTAEERKAVEKVLAEIAEGHHHHHH,soluble
22,MPEQLKQRVETCYQQAEAFFKRRFPRPEVSFKLRGQKAGVAHLHENLLRFNLQLYRENQEDFLRQTVAHEVAHLVAHQLFGDRIQAHGEEWQLIMRGVYELPPNRCHNYDVQRRAVTRYIYRCPCPQSDFPFTAQRHKLVHQGRRYLCKRCREVLVYSGETRVE,soluble
23,MNPFTYSKPTDITAAVNLSGPATRFIAGGTNLLDLMKENVATPEHLIDITGLPLREVSETASGGLMIGALVSNADLAYHPLIEARYPLLSKAVLAGASPQLRNMASTGGNLLQRTRCYYFYDTGVPCNKREPGSGCPAREGLNRIHAILGASDECVATHPSDMCVALAALEAVVHVEGRAGRRTIEFADFHRLPGDAPQRDNQLADDELIIAVELPAQGFASHNAYLKIRDRASYAFALISVAAAIDLDGDVVRDVRLALGGVAHKPWRDKAVEALLIGKPVTREHFAAAADAMLEDAKPLEHNGFKVRLARRAIIRALSDAATGGSAL,not soluble

# Source: the DeepSol protein solubility set
